Consider two molecules from US20240360216A1 (NOVOPROTEIN SCIENTIFIC, published 2024).

Assay [1] addresses T1, monkey CD3E protein (Examples 4.2 and 7) (monkey, UniProt Q95LI5 22-117).
T1 construct: extracellular domain
T1 sequence (looked up): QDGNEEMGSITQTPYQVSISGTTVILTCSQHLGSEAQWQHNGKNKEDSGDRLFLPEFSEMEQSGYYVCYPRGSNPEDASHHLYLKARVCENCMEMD
Briefly: ELISA on monkey CD3E.

In assay [2] the target is T2, human CD3E protein (Example 4.1) (human, UniProt P07766 23-126).
T2 construct: extracellular domain
T2 sequence (P07766 23-126): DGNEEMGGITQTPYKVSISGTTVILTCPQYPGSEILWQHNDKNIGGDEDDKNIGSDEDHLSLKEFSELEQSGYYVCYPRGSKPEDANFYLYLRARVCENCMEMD
Briefly: Fortebio (BLI), antibody on protein A sensor, CD3E diluted from 100 nM.

For assay [3], the target named is T3, human CD3 on Jurkat cells (human CD3+ cell line) (human, UniProt P07766 23-207).
T3 construct: whole, on cells; Also used for the T cells of human PBMC in the CD69 assays; also called human CD3 positive cells; CD3 on T cells of PBMC
T3 sequence (P07766 23-207): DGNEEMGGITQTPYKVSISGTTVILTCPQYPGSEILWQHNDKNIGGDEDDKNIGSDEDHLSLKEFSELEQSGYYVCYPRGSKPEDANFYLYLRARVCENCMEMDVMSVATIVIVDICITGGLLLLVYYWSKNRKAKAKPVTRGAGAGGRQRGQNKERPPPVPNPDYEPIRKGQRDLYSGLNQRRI
Briefly: flow cytometry on Jurkat cells, anti hFC-APC detection.

The target of assay [4] is T1, monkey CD3E protein (Examples 4.2 and 7). Briefly: ELISA.

B1: CD3 full-length antibody CQ54 (antibody, V domains shown)
VH: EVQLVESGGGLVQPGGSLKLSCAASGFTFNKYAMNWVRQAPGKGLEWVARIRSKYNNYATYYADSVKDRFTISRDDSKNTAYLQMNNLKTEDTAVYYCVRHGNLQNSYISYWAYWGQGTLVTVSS
VL: QTVVTQEPSLTVSPGGTVTLTCGSSTGPVTGGNYPNWVQQKPGQAPRGLIGGTKFLAPGTPARFSGSLLGGKAALTLSGVQPEDEAEYYCVLWESNRWVFGGGTKLTVLT
notes: Includes huVH5 and huVL5
Regarding B1, it took 0.375 µg/mL to reach a half-maximal effect in assay [1] (EC50). In assay [2], the Kd turned out to be 0.97 nM, the koff was 0.000604 s⁻¹ and the kon turned out to be 621000 M⁻¹ s⁻¹. Besides, the EC50 in assay [3] worked out at 0.023 µg/mL.

B2: OKT3 antibody (control antibody) (antibody, V domains shown)
VH: not shown
VL: QIVLTQSPAIMSASPGEKVTMTCSASSSVSYMNWYQQKSGTSPKRWIYDTSKLASGVPAHFRGSGSGTSYSLTISGMEAEDAATYYCQQWSSNPFTFGSGTKLEINR
Consider B2, for which the binding result in assay [4] was “no binding”.
